Measurements from article PMC8159449.

Target: T1, retinoblastoma protein (RB) (Homo sapiens, UniProt P06400 1-928)
T1 sequence: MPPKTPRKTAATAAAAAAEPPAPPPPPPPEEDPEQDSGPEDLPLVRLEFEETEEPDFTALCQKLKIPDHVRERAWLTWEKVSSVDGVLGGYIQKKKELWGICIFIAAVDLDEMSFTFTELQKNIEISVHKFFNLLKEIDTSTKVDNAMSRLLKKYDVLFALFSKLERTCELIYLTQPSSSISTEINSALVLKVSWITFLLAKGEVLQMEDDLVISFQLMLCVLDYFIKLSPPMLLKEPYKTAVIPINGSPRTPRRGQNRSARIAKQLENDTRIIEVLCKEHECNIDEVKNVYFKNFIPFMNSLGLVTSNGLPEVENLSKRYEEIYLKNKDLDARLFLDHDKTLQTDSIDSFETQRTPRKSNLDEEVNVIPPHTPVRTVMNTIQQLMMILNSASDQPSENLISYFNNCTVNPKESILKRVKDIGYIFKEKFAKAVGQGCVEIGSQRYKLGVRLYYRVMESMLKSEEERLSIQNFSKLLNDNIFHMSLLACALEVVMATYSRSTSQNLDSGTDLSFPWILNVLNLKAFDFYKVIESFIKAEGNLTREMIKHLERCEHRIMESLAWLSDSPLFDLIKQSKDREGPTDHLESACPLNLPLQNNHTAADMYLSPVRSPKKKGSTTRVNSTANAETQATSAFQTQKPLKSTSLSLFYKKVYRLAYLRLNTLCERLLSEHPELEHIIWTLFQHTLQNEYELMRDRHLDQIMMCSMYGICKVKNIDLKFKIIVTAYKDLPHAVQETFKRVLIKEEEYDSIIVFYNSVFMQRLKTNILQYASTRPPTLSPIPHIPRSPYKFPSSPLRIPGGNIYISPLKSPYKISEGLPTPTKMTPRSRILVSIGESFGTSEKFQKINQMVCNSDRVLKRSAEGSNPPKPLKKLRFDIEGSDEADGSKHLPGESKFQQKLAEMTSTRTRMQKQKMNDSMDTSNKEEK
Assay: ELONA

B1: 18E16 (structured_RNA)
RNA: GGAGGGUGGAGGGAAGGG
Kd: 5.1 ± 0.7 nM
